{"source": "patent US7326418B2", "about": "“Identification of novel factors that block programmed cell death or apoptosis by targeting JNK” (University of Chicago, priority 2001, dated 2008)", "molecules": {"B1": {"name": "GST-Gadd45β: full-length murine Gadd45β directly fused to GST, purified from E. coli (protein)", "chain": "MTLEELVASDNAVQKMQAVTAAVEQLLVAAQRQDRLTVGVYEAAKLMNVDPDSVVLCLLAIDEEEEDDIALQIHFTLIQSFCCDNDIDIVRVSGMQRLAQLLGEPAETLGTTEARDLHCLLVTNCHTDSWKSQGLVEVASYCEESRGNNQWVPYISLEER", "modifications": "left off: a dimerising Fc or GST", "notes": "full-length murine Gadd45β directly fused to GST, purified from E. coli"}}, "target": "T1, JNKK2 (Homo sapiens, UniProt O14733, Q133P/Q94H)", "T1 construct": "plasmids encoding full-length (FL) human ASK1, MEKK4, JNKK1, and JNKK2; made in house; host or cells: TNT coupled reticulocyte lysate (Promega), in vitro transcription/translation from pBS", "T1 sequence (O14733 1-401 Q94H/Q133P limits assumed)": "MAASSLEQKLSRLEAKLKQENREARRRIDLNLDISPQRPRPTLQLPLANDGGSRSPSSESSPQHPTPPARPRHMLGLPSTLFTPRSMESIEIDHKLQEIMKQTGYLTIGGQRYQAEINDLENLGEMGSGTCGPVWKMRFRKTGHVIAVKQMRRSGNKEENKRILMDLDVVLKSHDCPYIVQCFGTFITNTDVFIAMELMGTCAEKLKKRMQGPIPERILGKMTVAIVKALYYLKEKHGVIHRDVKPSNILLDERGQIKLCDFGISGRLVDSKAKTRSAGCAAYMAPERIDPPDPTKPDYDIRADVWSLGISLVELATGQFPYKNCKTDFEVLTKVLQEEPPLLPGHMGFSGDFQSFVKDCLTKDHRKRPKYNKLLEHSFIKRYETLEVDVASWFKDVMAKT", "assay": "GST pull-down, GST-Gadd45β beads with in vitro translated 35S-labeled JNKK2", "assay_type": "binding", "method": "To confirm the above interactions, in vitro, GST pull-down experiments were performed. pBluescript (pBS) plasmids encoding full-length (FL) human ASK1, MEKK4, JNKK1, and JNKK2, or polypeptides derived from the amino- or carboxy-terminal portions of ASK1 (i.e. N-ASK1, spanning from amino acids 1 to 756, and C-ASK1, spanning from amino acids 648 to 1375) were transcribed and translated in vitro using the TNT coupled retyculocyte lysate system (Promega) in the presence of ^35S-methionine. 5 μl of each translation mix were incubated, in vitro, with sepharose-4B beads that had been coated with either purified glutathione-S-transferase (GST) polypeptides or GST-Gadd45β proteins. The latter proteins contained FL murine Gadd45β directly fused to GST. Binding assays were performed according to standard procedures, and ^35S-labeled proteins that bound to beads, as well as 2 μl of each in vitro translation mix (input), were then resolved by SDS polyacrylamide gel electrophoresis. Asterisks indicate the intact translated products. […] Thus, GST pull-down experiments confirmed the strong interaction between Gadd45β and JNKK2 observed in vivo, as well as the weaker interactions of Gadd45β with other kinases in the JNK pathway. These assays also uncovered a weak association between Gadd45β and JNKK1. […]", "data": [{"molecule": "B1", "values": [{"measurement": "association with FL-JNKK2", "result": "strongly associated"}]}]}
